# According to the supplement of paper PMC9112550, “Optimization of the antimicrobial peptide Bac7 by deep mutational scanning” (BMC Biology, 2022):
# Test system: Escherichia coli TOP10
# Test: shrunken log2 fold change of peptide-encoding DNA abundance (4.5 h post-induction vs induction); higher = less antimicrobial activity (less host growth inhibition)
# Conditions: time post-induction: 4.5 h; library: site-saturation at positions 5, 18, 19, 20
# 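Further: peptides expressed intracellularly from a pBAD plasmid library in pooled LB shake-flask culture, induced with 0.3% L-arabinose, DNA abundance read by NGS, three biological replicates, DESeq2 with apeglm shrinkage.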
row,Sequence,shrunken log2 fold change
1,RRIRDRPPRLPRPRPRPTRVPRP,0.0497
2,RRIRDRPPRLPRPRPRPASWPRP,0.805
3,RRIRVRPPRLPRPRPRPMLDPRP,-0.215
4,RRIRYRPPRLPRPRPRPVPQPRP,-0.0271
5,RRIRKRPPRLPRPRPRPTQQPRP,1.35
6,RRIRPRPPRLPRPRPRPAEWPRP,0.308
7,RRIRNRPPRLPRPRPRPKTSPRP,-0.0653
8,RRIRQRPPRLPRPRPRPSSFPRP,-0.308
9,RRIRHRPPRLPRPRPRPTRWPRP,0.137
10,RRIRCRPPRLPRPRPRPFLEPRP,-0.472
11,RRIRVRPPRLPRPRPRPQAEPRP,0.352
12,RRIRERPPRLPRPRPRPTGHPRP,-0.0413
13,RRIRIRPPRLPRPRPRPWKHPRP,-0.0111
14,RRIRRRPPRLPRPRPRPWSVPRP,0.0267
15,RRIRGRPPRLPRPRPRPEFMPRP,0.887
16,RRIRSRPPRLPRPRPRPMDYPRP,0.0691
17,RRIRTRPPRLPRPRPRPVTVPRP,0.0698
18,RRIRQRPPRLPRPRPRPRHWPRP,0.218
19,RRIRARPPRLPRPRPRPQAVPRP,0.0772
20,RRIRKRPPRLPRPRPRPPPPPRP,1.23
21,RRIRYRPPRLPRPRPRPMQSPRP,2.85
22,RRIRFRPPRLPRPRPRPWKGPRP,-0.0869
23,RRIRNRPPRLPRPRPRPPVKPRP,-0.123
24,RRIRQRPPRLPRPRPRPPTKPRP,0.209
25,RRIRMRPPRLPRPRPRPILKPRP,-0.206

row,Sequence,shrunken log2 fold change
1,RRIRKRPPRLPRPRPRPQWDPRP,0.00929
2,RRIRKRPPRLPRPRPRPCCDPRP,0.217
3,RRIRLRPPRLPRPRPRPRWMPRP,0.162
4,RRIRLRPPRLPRPRPRPKFVPRP,-0.055
5,RRIRVRPPRLPRPRPRPAWFPRP,0.0841
6,RRIRHRPPRLPRPRPRPKAGPRP,-0.115
7,RRIRCRPPRLPRPRPRPDRTPRP,0.0438
8,RRIRERPPRLPRPRPRPTMIPRP,-0.597
9,RRIRRRPPRLPRPRPRPCGCPRP,0.0953
10,RRIRKRPPRLPRPRPRPFGLPRP,-0.0305
11,RRIRTRPPRLPRPRPRPSGFPRP,0.131
12,RRIRTRPPRLPRPRPRPHTIPRP,-0.314
13,RRIRRRPPRLPRPRPRPCHHPRP,-0.0387
14,RRIRTRPPRLPRPRPRPSERPRP,-0.186
15,RRIRYRPPRLPRPRPRPGKGPRP,-0.0232
16,RRIRLRPPRLPRPRPRPFVTPRP,-0.303
17,RRIRPRPPRLPRPRPRPVPVPRP,0.136
18,RRIRPRPPRLPRPRPRPYLHPRP,-0.471
19,RRIRWRPPRLPRPRPRPKNKPRP,0.107
20,RRIRNRPPRLPRPRPRPTEQPRP,-0.209
21,RRIRERPPRLPRPRPRPSQLPRP,-0.127
22,RRIRMRPPRLPRPRPRPSSAPRP,0.514
23,RRIRLRPPRLPRPRPRPRDCPRP,-0.0082
24,RRIRQRPPRLPRPRPRPINAPRP,-0.116
25,RRIRRRPPRLPRPRPRPEHDPRP,0.356

row,Sequence,shrunken log2 fold change
1,RRIRFRPPRLPRPRPRPMTIPRP,-0.182
2,RRIRNRPPRLPRPRPRPMSVPRP,0.0774
3,RRIRHRPPRLPRPRPRPVNYPRP,-0.881
4,RRIRTRPPRLPRPRPRPVILPRP,-0.994
5,RRIRYRPPRLPRPRPRPVKYPRP,-0.135
6,RRIRKRPPRLPRPRPRPVHFPRP,-0.0637
7,RRIRRRPPRLPRPRPRPYQMPRP,-0.0261
8,RRIRYRPPRLPRPRPRPHQMPRP,-0.0207
9,RRIRLRPPRLPRPRPRPNKQPRP,-0.0903
10,RRIRDRPPRLPRPRPRPDPHPRP,0.0248
11,RRIRNRPPRLPRPRPRPNFKPRP,-0.0826
12,RRIRMRPPRLPRPRPRPKLMPRP,0.718
13,RRIRARPPRLPRPRPRPNCRPRP,0.0806
14,RRIRERPPRLPRPRPRPTMHPRP,-0.229
15,RRIRGRPPRLPRPRPRPVMVPRP,0.128
16,RRIRPRPPRLPRPRPRPLSTPRP,-0.0907
17,RRIRFRPPRLPRPRPRPMQDPRP,-0.0947
18,RRIRGRPPRLPRPRPRPENYPRP,-0.144
19,RRIRPRPPRLPRPRPRPHKYPRP,-0.29
20,RRIRCRPPRLPRPRPRPLMPPRP,-0.151
21,RRIRMRPPRLPRPRPRPWFWPRP,0.221
22,RRIRYRPPRLPRPRPRPPGEPRP,0.0198
23,RRIRERPPRLPRPRPRPAYAPRP,0.0657
24,RRIRGRPPRLPRPRPRPTFGPRP,0.404
25,RRIRWRPPRLPRPRPRPWVNPRP,-0.183

row,Sequence,shrunken log2 fold change
1,RRIRTRPPRLPRPRPRPPRPPRP,0.713
2,RRIRERPPRLPRPRPRPCLWPRP,-0.0179
3,RRIRYRPPRLPRPRPRPLIMPRP,-0.0566
4,RRIRIRPPRLPRPRPRPRATPRP,0.728
5,RRIRTRPPRLPRPRPRPMSPPRP,-0.152
6,RRIRFRPPRLPRPRPRPWHFPRP,-0.542
7,RRIRIRPPRLPRPRPRPCWSPRP,0.0832
8,RRIRCRPPRLPRPRPRPMTFPRP,-0.0603
9,RRIRCRPPRLPRPRPRPRWFPRP,0.0519
10,RRIRTRPPRLPRPRPRPECLPRP,0.105
11,RRIRWRPPRLPRPRPRPVIAPRP,0.037
12,RRIRDRPPRLPRPRPRPTWQPRP,0.542
13,RRIRIRPPRLPRPRPRPACGPRP,0.271
14,RRIRHRPPRLPRPRPRPCATPRP,0.0959
15,RRIRMRPPRLPRPRPRPVRFPRP,0.725
16,RRIRHRPPRLPRPRPRPCVGPRP,0.116
17,RRIRRRPPRLPRPRPRPVFYPRP,-0.0199
18,RRIRERPPRLPRPRPRPQRDPRP,0.0296
19,RRIRERPPRLPRPRPRPLCAPRP,-0.0485
20,RRIRIRPPRLPRPRPRPEFQPRP,-0.129
21,RRIRHRPPRLPRPRPRPTSPPRP,-0.0524
22,RRIRDRPPRLPRPRPRPMACPRP,-0.00146
23,RRIRNRPPRLPRPRPRPWQNPRP,0.191
24,RRIRARPPRLPRPRPRPHCYPRP,0.101
25,RRIRNRPPRLPRPRPRPKKMPRP,-0.233

row,Sequence,shrunken log2 fold change
1,RRIRIRPPRLPRPRPRPVPIPRP,-0.403
2,RRIRSRPPRLPRPRPRPPCTPRP,-0.174
3,RRIRERPPRLPRPRPRPLYKPRP,-0.769
4,RRIRNRPPRLPRPRPRPHHEPRP,-0.534
5,RRIRGRPPRLPRPRPRPDFYPRP,0.232
6,RRIRPRPPRLPRPRPRPTITPRP,-0.347
7,RRIRLRPPRLPRPRPRPHDTPRP,-0.18
8,RRIRFRPPRLPRPRPRPMTCPRP,-0.0088
9,RRIRARPPRLPRPRPRPMKNPRP,0.0488
10,RRIRARPPRLPRPRPRPKKPPRP,0.0922
11,RRIRYRPPRLPRPRPRPACYPRP,-0.553
12,RRIRPRPPRLPRPRPRPSTFPRP,0.147
13,RRIRIRPPRLPRPRPRPPFTPRP,0.0753
14,RRIRERPPRLPRPRPRPWTPPRP,-0.15
15,RRIRCRPPRLPRPRPRPSQAPRP,-0.0139
16,RRIRARPPRLPRPRPRPLCEPRP,0.879
17,RRIRQRPPRLPRPRPRPFIWPRP,-0.357
18,RRIRPRPPRLPRPRPRPFGTPRP,-0.444
19,RRIRMRPPRLPRPRPRPASNPRP,0.421
20,RRIRNRPPRLPRPRPRPEERPRP,-0.116
21,RRIRFRPPRLPRPRPRPFDRPRP,0.0332
22,RRIRQRPPRLPRPRPRPEYYPRP,-0.306
23,RRIRARPPRLPRPRPRPKAFPRP,0.269
24,RRIRQRPPRLPRPRPRPKVLPRP,0.0378
25,RRIRNRPPRLPRPRPRPSMSPRP,-0.222

row,Sequence,shrunken log2 fold change
1,RRIRWRPPRLPRPRPRPISGPRP,-0.12
2,RRIRARPPRLPRPRPRPVDPPRP,0.291
3,RRIRVRPPRLPRPRPRPDPHPRP,-0.16
4,RRIRLRPPRLPRPRPRPKIMPRP,-0.314
5,RRIRGRPPRLPRPRPRPLDHPRP,0.178
6,RRIRWRPPRLPRPRPRPFRCPRP,-0.257
7,RRIRIRPPRLPRPRPRPLKLPRP,-0.838
8,RRIRHRPPRLPRPRPRPHHSPRP,-0.147
9,RRIRYRPPRLPRPRPRPERVPRP,-0.0107
10,RRIRKRPPRLPRPRPRPWQTPRP,0.146
11,RRIRVRPPRLPRPRPRPSNVPRP,-0.139
12,RRIRARPPRLPRPRPRPMEIPRP,0.146
13,RRIRWRPPRLPRPRPRPWNVPRP,0.0207
14,RRIRPRPPRLPRPRPRPEMCPRP,0.291
15,RRIRIRPPRLPRPRPRPGRKPRP,0.0417
16,RRIRDRPPRLPRPRPRPFDAPRP,-0.13
17,RRIRYRPPRLPRPRPRPEGEPRP,0.199
18,RRIRMRPPRLPRPRPRPTFFPRP,0.229
19,RRIRCRPPRLPRPRPRPNKEPRP,-0.189
20,RRIRCRPPRLPRPRPRPITMPRP,-0.309
21,RRIRLRPPRLPRPRPRPRMAPRP,0.39
22,RRIRKRPPRLPRPRPRPTDEPRP,0.819
23,RRIRQRPPRLPRPRPRPDYFPRP,-0.198
24,RRIRTRPPRLPRPRPRPNNRPRP,-0.754
25,RRIRIRPPRLPRPRPRPPGNPRP,-0.233
